From patent US20120316071A1 (published 2012) come the findings set out here.

This assay has as its target T1, Recombinant Human DLL4 (delta-like protein 4) (human, UniProt Q9NR61 27-524).
T1 construct: also called rHuman DLL4; Delta-like 4
Description: ELISA, DLL4 coated on plate, Fab at 100 nM.

B1: Fab VH5-51_IGHD5-18*01>3_IGHJ4*01 G100K/G104T G24T/S28R/G35V & V3-4_IGLJ1*01 V91L/S96P S52M (Fab, V domains shown)
VH: EVQLVQSGAEVKKPGESLKISCKTSGYRFTSYWIVWVRQMPGKGLEWMGIIYPGDSDTRYSPSFQGQVTISADKSISTAYLQWSSLKASDTAMYYCARRKYSYTYDYFDYWGQGTLVTVSS
VL: QTVVTQEPSFSVSPGGTVTLTCGLSSGSVSTSYYPSWYQQTPGQAPRTLIYMTNTRSSGVPDRFSGSILGNKAALTITGAQADDESDYYCLLYMGPGISYVFGTGTKVTVL
notes: Fab expressed in E. coli; heavy chain vector adds CH1 with His6 and Flag tags, light chain vector adds lambda CL; also called H:KT TRV & L:LP S52M
As to B1, the “ELISA Signal-blank (100 nM Fab)” value is 0.46.

B2: Fab VH5-51_IGHD5-18*01>3_IGHJ4*01 G100K/G104T G24T/S28R/G35V & V3-4_IGLJ1*01 V91L/S96P S52Y (Fab, V domains shown)
VH: EVQLVQSGAEVKKPGESLKISCKTSGYRFTSYWIVWVRQMPGKGLEWMGIIYPGDSDTRYSPSFQGQVTISADKSISTAYLQWSSLKASDTAMYYCARRKYSYTYDYFDYWGQGTLVTVSS
VL: QTVVTQEPSFSVSPGGTVTLTCGLSSGSVSTSYYPSWYQQTPGQAPRTLIYYTNTRSSGVPDRFSGSILGNKAALTITGAQADDESDYYCLLYMGPGISYVFGTGTKVTVL
notes: Fab expressed in E. coli; heavy chain vector adds CH1 with His6 and Flag tags, light chain vector adds lambda CL; also called H:KT TRV & L:LP S52Y
In the case of B2, the “ELISA Signal-blank (100 nM Fab)” value came to 0.41.

B3: Fab VH5-51_IGHD5-18*01>3_IGHJ4*01 G100K/G104T G24T/S28R/G35V & V3-4_IGLJ1*01 V91L/S96P T53L (Fab, V domains shown)
VH: EVQLVQSGAEVKKPGESLKISCKTSGYRFTSYWIVWVRQMPGKGLEWMGIIYPGDSDTRYSPSFQGQVTISADKSISTAYLQWSSLKASDTAMYYCARRKYSYTYDYFDYWGQGTLVTVSS
VL: QTVVTQEPSFSVSPGGTVTLTCGLSSGSVSTSYYPSWYQQTPGQAPRTLIYSLNTRSSGVPDRFSGSILGNKAALTITGAQADDESDYYCLLYMGPGISYVFGTGTKVTVL
notes: Fab expressed in E. coli; heavy chain vector adds CH1 with His6 and Flag tags, light chain vector adds lambda CL; also called H:KT TRV & L:LP T53L
B3: the “ELISA Signal-blank (100 nM Fab)” value is 0.18.

B4: Fab VH5-51_IGHD5-18*01>3_IGHJ4*01 G100K/G104T G24T/S28R/G35V & V3-4_IGLJ1*01 V91L/S96P T53F (Fab, V domains shown)
VH: EVQLVQSGAEVKKPGESLKISCKTSGYRFTSYWIVWVRQMPGKGLEWMGIIYPGDSDTRYSPSFQGQVTISADKSISTAYLQWSSLKASDTAMYYCARRKYSYTYDYFDYWGQGTLVTVSS
VL: QTVVTQEPSFSVSPGGTVTLTCGLSSGSVSTSYYPSWYQQTPGQAPRTLIYSFNTRSSGVPDRFSGSILGNKAALTITGAQADDESDYYCLLYMGPGISYVFGTGTKVTVL
notes: Fab expressed in E. coli; heavy chain vector adds CH1 with His6 and Flag tags, light chain vector adds lambda CL; also called H:KT TRV & L:LP T53F
Turning to B4, the “ELISA Signal-blank (100 nM Fab)” value came to 0.15.

B5: Fab VH5-51_IGHD5-18*01>3_IGHJ4*01 G100K/G104T G24T/S28R/G35V & V3-4_IGLJ1*01 V91L/S96P S52P (Fab, V domains shown)
VH: EVQLVQSGAEVKKPGESLKISCKTSGYRFTSYWIVWVRQMPGKGLEWMGIIYPGDSDTRYSPSFQGQVTISADKSISTAYLQWSSLKASDTAMYYCARRKYSYTYDYFDYWGQGTLVTVSS
VL: QTVVTQEPSFSVSPGGTVTLTCGLSSGSVSTSYYPSWYQQTPGQAPRTLIYPTNTRSSGVPDRFSGSILGNKAALTITGAQADDESDYYCLLYMGPGISYVFGTGTKVTVL
notes: Fab expressed in E. coli; heavy chain vector adds CH1 with His6 and Flag tags, light chain vector adds lambda CL; also called H:KT TRV & L:LP S52P
As for B5, the “ELISA Signal-blank (100 nM Fab)” value worked out at 0.32.

B6: Fab VH5-51_IGHD5-18*01>3_IGHJ4*01 G100K/G104T G24T/S28R/G35V & V3-4_IGLJ1*01 V91L/S96P S52L (Fab, V domains shown)
VH: EVQLVQSGAEVKKPGESLKISCKTSGYRFTSYWIVWVRQMPGKGLEWMGIIYPGDSDTRYSPSFQGQVTISADKSISTAYLQWSSLKASDTAMYYCARRKYSYTYDYFDYWGQGTLVTVSS
VL: QTVVTQEPSFSVSPGGTVTLTCGLSSGSVSTSYYPSWYQQTPGQAPRTLIYLTNTRSSGVPDRFSGSILGNKAALTITGAQADDESDYYCLLYMGPGISYVFGTGTKVTVL
notes: Fab expressed in E. coli; heavy chain vector adds CH1 with His6 and Flag tags, light chain vector adds lambda CL; also called H:KT TRV & L:LP S52L
Take B6: the “ELISA Signal-blank (100 nM Fab)” value was 0.4.

B7: Fab VH5-51_IGHD5-18*01>3_IGHJ4*01 G100K/G104T G24T/S28R/G35V & V3-4_IGLJ1*01 V91L/S96P T53N (Fab, V domains shown)
VH: EVQLVQSGAEVKKPGESLKISCKTSGYRFTSYWIVWVRQMPGKGLEWMGIIYPGDSDTRYSPSFQGQVTISADKSISTAYLQWSSLKASDTAMYYCARRKYSYTYDYFDYWGQGTLVTVSS
VL: QTVVTQEPSFSVSPGGTVTLTCGLSSGSVSTSYYPSWYQQTPGQAPRTLIYSNNTRSSGVPDRFSGSILGNKAALTITGAQADDESDYYCLLYMGPGISYVFGTGTKVTVL
notes: Fab expressed in E. coli; heavy chain vector adds CH1 with His6 and Flag tags, light chain vector adds lambda CL; also called H:KT TRV & L:LP T53N
On to B7, for which the “ELISA Signal-blank (100 nM Fab)” value turned out to be 0.15.

B8: Fab VH5-51_IGHD5-18*01>3_IGHJ4*01 G100K/G104T G24T/S28R/G35V & V3-4_IGLJ1*01 V91L/S96P T53Q (Fab, V domains shown)
VH: EVQLVQSGAEVKKPGESLKISCKTSGYRFTSYWIVWVRQMPGKGLEWMGIIYPGDSDTRYSPSFQGQVTISADKSISTAYLQWSSLKASDTAMYYCARRKYSYTYDYFDYWGQGTLVTVSS
VL: QTVVTQEPSFSVSPGGTVTLTCGLSSGSVSTSYYPSWYQQTPGQAPRTLIYSQNTRSSGVPDRFSGSILGNKAALTITGAQADDESDYYCLLYMGPGISYVFGTGTKVTVL
notes: Fab expressed in E. coli; heavy chain vector adds CH1 with His6 and Flag tags, light chain vector adds lambda CL; also called H:KT TRV & L:LP T53Q
As for B8, the “ELISA Signal-blank (100 nM Fab)” value came to 0.11.

B9: Fab VH5-51_IGHD5-18*01>3_IGHJ4*01 G100K/G104T G24T/S28R/G35V & V3-4_IGLJ1*01 V91L/S96P S52Q (Fab, V domains shown)
VH: EVQLVQSGAEVKKPGESLKISCKTSGYRFTSYWIVWVRQMPGKGLEWMGIIYPGDSDTRYSPSFQGQVTISADKSISTAYLQWSSLKASDTAMYYCARRKYSYTYDYFDYWGQGTLVTVSS
VL: QTVVTQEPSFSVSPGGTVTLTCGLSSGSVSTSYYPSWYQQTPGQAPRTLIYQTNTRSSGVPDRFSGSILGNKAALTITGAQADDESDYYCLLYMGPGISYVFGTGTKVTVL
notes: Fab expressed in E. coli; heavy chain vector adds CH1 with His6 and Flag tags, light chain vector adds lambda CL; also called H:KT TRV & L:LP S52Q
For B9, the “ELISA Signal-blank (100 nM Fab)” value is 0.39.

B10: Fab VH5-51_IGHD5-18*01>3_IGHJ4*01 G100K/G104T G24T/S28R/G35V & V3-4_IGLJ1*01 V91L/S96P T53P (Fab, V domains shown)
VH: EVQLVQSGAEVKKPGESLKISCKTSGYRFTSYWIVWVRQMPGKGLEWMGIIYPGDSDTRYSPSFQGQVTISADKSISTAYLQWSSLKASDTAMYYCARRKYSYTYDYFDYWGQGTLVTVSS
VL: QTVVTQEPSFSVSPGGTVTLTCGLSSGSVSTSYYPSWYQQTPGQAPRTLIYSPNTRSSGVPDRFSGSILGNKAALTITGAQADDESDYYCLLYMGPGISYVFGTGTKVTVL
notes: Fab expressed in E. coli; heavy chain vector adds CH1 with His6 and Flag tags, light chain vector adds lambda CL; also called H:KT TRV & L:LP T53P
B10: the “ELISA Signal-blank (100 nM Fab)” value was 0.39.
